Source: US20150224191A1 (VEGENICS, published 2015)

Key:
VEGF-C [1] = target: T1, VEGF-C (human, UniProt P49767 103-227, limits assumed); test: BiaCore (SPR); format not described
T1 construct: The assay protein was probably a processed or mature form; also called vascular endothelial growth factor C
T1 sequence: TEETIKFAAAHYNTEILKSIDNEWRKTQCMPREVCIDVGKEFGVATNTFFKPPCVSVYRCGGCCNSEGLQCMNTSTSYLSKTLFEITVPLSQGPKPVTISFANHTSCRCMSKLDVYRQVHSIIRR

VEGF-C [2] = target: T1, VEGF-C; test: cell-based or functional assay
VEGF-C [3] = target: T1, VEGF-C; test: cell-based or functional assay; remark: listed apart in the source
VEGF-C Dimer = target: T2, VEGF-C Dimer (Homodimer of two identical chains. The nature of the dimer linkage is not stated in the passages seen.); test: direct binding ELISA, antigen coated as capture antigen, bound VGX-100 detected with rabbit anti-human IgG-HRP, Abs 450 nm
T2 construct: a form of m2; also called dimer form of VEGF-C
T2 chain 1: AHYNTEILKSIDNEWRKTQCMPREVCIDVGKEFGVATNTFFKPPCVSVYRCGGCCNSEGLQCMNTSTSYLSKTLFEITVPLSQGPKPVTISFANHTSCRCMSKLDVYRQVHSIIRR
T2 chain 2: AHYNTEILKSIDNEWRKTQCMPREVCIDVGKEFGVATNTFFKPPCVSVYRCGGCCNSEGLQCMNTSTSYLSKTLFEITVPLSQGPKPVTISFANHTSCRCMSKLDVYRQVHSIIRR

VEGF-C Monomer = target: T3, VEGF-C Monomer; test: as above
T3 construct: a form of m2; also called monomer form of VEGF-C
T3 chain: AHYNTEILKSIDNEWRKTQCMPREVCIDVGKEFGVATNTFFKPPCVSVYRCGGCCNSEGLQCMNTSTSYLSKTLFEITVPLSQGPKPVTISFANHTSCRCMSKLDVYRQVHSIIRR

Kd (VEGF-C [1]): 1.8 nM
IC50 (read off the curve); [3H]-thymidine incorporation of BA/F3-VEGFR-2/EpoR cells as percent of ligand alone; blocked: VEGF-C binding to VEGFR-2 (VEGF-C [2]): ~0.03 µg/mL
IC50 (read off the curve); [3H]-thymidine incorporation of BA/F3-VEGFR-3/EpoR cells as percent of ligand alone; blocked: VEGF-C binding to VEGFR-3 (VEGF-C [3]): ~0.04 µg/mL
EC50 (read off the curve) (VEGF-C Dimer): ~1 ng/mL
EC50 (read off the curve) (VEGF-C Monomer): ~1 ng/mL
B1: VEGF-C antibody VGX-100 (antibody, human IgG1, lambda, V domains shown)
VH: EVRLLESGGGLVQPGGSLRLSCAASGFTFRPRAMAWVRQAPGKGLEWVSSISAQGASAYYADSVKGRFTISRDNSKNTLYLQMNSLRAEDTAVYYCARDLSVSGFGPWGRGTMVTVSS
VL: SYELTQPPSSSGTPGQRVTISCSGSSSNIGRHTVSWYQQVPGTAPKLLIYSDDHRPSGVPDRFSASKSGTSASLTITGLQSEDEADYYCAAWDDSLNGPWVFGGGTKLTVLG
